Source: patent US10227388B2, “Peptides and combination of peptides for use in immunotherapy against non-small cell lung cancer and other cancers” (immatics biotechnologies GmbH, priority 2015, dated 2019)

Target: HLA-A*02:01 (Homo sapiens, UniProt P04439, D140Y/D185E/D98H/E176V/E277Q/G131W/G231S/I119V/I121R/I166T/I218V/L300P/L318F/N151K/N90K/P208A/P217A/Q86G/Q94H/R138H/R169H/T345S)
Assay: MHC binding assay (UV-ligand exchange, ELISA, peptide exchange yield)
Conditions: binding of HLA-class I restricted peptides to HLA-A*02:01
In short: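 Exchange yield was quantified as stabilized β2m-containing complex: monomers diluted 100-fold bound to streptavidin-coated wells, probed with HRP-conjugated anti-β2m, read at 450 nm after TMB. Complexes had been generated by UV cleavage of a photolabile ligand and replacement with the candidate peptide.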

## 509 (FLFDTKPLIV; listed as Homo sapiens) [compound 509]
  Peptide exchange (MHC class I binding score, peptide exchange yield): ″+++″ (≥50% = +++)

## 510 (KLYSVVSQL; listed as Homo sapiens) [compound 510]
  Peptide exchange (MHC class I binding score, peptide exchange yield): ″++″ (≥20% = ++)

## 512 (SLSEIVPCL; listed as Homo sapiens) [compound 512]
  Peptide exchange (MHC class I binding score, peptide exchange yield): ″+++″ (≥50% = +++)

## 513 (SLWPSPEQL; listed as Homo sapiens) [compound 513]
  Peptide exchange (MHC class I binding score, peptide exchange yield): ″++″ (≥20% = ++)

## 514 (ILVDWLVQV; listed as Homo sapiens) [compound 514]
  Peptide exchange (MHC class I binding score, peptide exchange yield): ″+++″ (≥50% = +++)

## 515 (LLQELVLFL; listed as Homo sapiens) [compound 515]
  Peptide exchange (MHC class I binding score, peptide exchange yield): ″+++″ (≥50% = +++)

## 516 (AVGPASILKEV; listed as Homo sapiens) [compound 516]
  Peptide exchange (MHC class I binding score, peptide exchange yield): ″++″ (≥20% = ++)

## 517 (LLMPIPEGLTL; listed as Homo sapiens) [compound 517]
  Peptide exchange (MHC class I binding score, peptide exchange yield): ″+++″ (≥50% = +++)

## 518 (KLNAEVACV; listed as Homo sapiens) [compound 518]
  Peptide exchange (MHC class I binding score, peptide exchange yield): ″+++″ (≥50% = +++)

## 519 (GLLHLTLLL; listed as Homo sapiens) [compound 519]
  Peptide exchange (MHC class I binding score, peptide exchange yield): ″+++″ (≥50% = +++)

## 520 (LAVHPSGVAL; listed as Homo sapiens) [compound 520]
  Peptide exchange (MHC class I binding score, peptide exchange yield): ″+″ (≥10% = +)

## 521 (MLLTKLPTI; listed as Homo sapiens) [compound 521]
  Peptide exchange (MHC class I binding score, peptide exchange yield): ″+++″ (≥50% = +++)

## 522 (TLWYRSPEV; listed as Homo sapiens) [compound 522]
  Peptide exchange (MHC class I binding score, peptide exchange yield): ″++″ (≥20% = ++)

## 523 (YQIPRTFTL; listed as Homo sapiens) [compound 523]
  Peptide exchange (MHC class I binding score, peptide exchange yield): ″++″ (≥20% = ++)

## 524 (ALIENLTHQI; listed as Homo sapiens) [compound 524]
  Peptide exchange (MHC class I binding score, peptide exchange yield): ″++″ (≥20% = ++)

## 525 (VLLEAGEGLVTI; listed as Homo sapiens) [compound 525]
  Peptide exchange (MHC class I binding score, peptide exchange yield): ″+++″ (≥50% = +++)

## 526 (RLAEVGQYEQV; listed as Homo sapiens) [compound 526]
  Peptide exchange (MHC class I binding score, peptide exchange yield): ″++″ (≥20% = ++)

## 527 (FLLEPGNLEV; listed as Homo sapiens) [compound 527]
  Peptide exchange (MHC class I binding score, peptide exchange yield): ″++++″ (≥75% = ++++)

## 528 (SVAEGRALMSV; listed as Homo sapiens) [compound 528]
  Peptide exchange (MHC class I binding score, peptide exchange yield): ″+++″ (≥50% = +++)

## 529 (LLADELITV; listed as Homo sapiens) [compound 529]
  Peptide exchange (MHC class I binding score, peptide exchange yield): ″+++″ (≥50% = +++)

## 530 (VMYADIGGMDI; listed as Homo sapiens) [compound 530]
  Peptide exchange (MHC class I binding score, peptide exchange yield): ″+++″ (≥50% = +++)

## 531 (YTLPIASSIRL; listed as Homo sapiens) [compound 531]
  Peptide exchange (MHC class I binding score, peptide exchange yield): ″+++″ (≥50% = +++)

## 537 (TLAPGEVLRSV; listed as Homo sapiens) [compound 537]
  Peptide exchange (MHC class I binding score, peptide exchange yield): ″+++″ (≥50% = +++)

## 538 (LLLAHIIAL; listed as Homo sapiens) [compound 538]
  Peptide exchange (MHC class I binding score, peptide exchange yield): ″++″ (≥20% = ++)

## 539 (ALFDAQAQV; listed as Homo sapiens) [compound 539]
  Peptide exchange (MHC class I binding score, peptide exchange yield): ″+++″ (≥50% = +++)

## 541 (SMLEPVPEL; listed as Homo sapiens) [compound 541]
  Peptide exchange (MHC class I binding score, peptide exchange yield): ″+++″ (≥50% = +++)

## 542 (RVWDISTVSSV; listed as Homo sapiens) [compound 542]
  Peptide exchange (MHC class I binding score, peptide exchange yield): ″+++″ (≥50% = +++)

## 543 (GLLPTPITQQASL; listed as Homo sapiens) [compound 543]
  Peptide exchange (MHC class I binding score, peptide exchange yield): ″+++″ (≥50% = +++)

## 544 (LLWDVPAPSL; listed as Homo sapiens) [compound 544]
  Peptide exchange (MHC class I binding score, peptide exchange yield): ″+++″ (≥50% = +++)

## 545 (LLADLLHNV; listed as Homo sapiens) [compound 545]
  Peptide exchange (MHC class I binding score, peptide exchange yield): ″+++″ (≥50% = +++)

## 546 (VMIAGKVAVV; listed as Homo sapiens) [compound 546]
  Peptide exchange (MHC class I binding score, peptide exchange yield): ″+++″ (≥50% = +++)

## 547 (TLDITPHTV; listed as Homo sapiens) [compound 547]
  Peptide exchange (MHC class I binding score, peptide exchange yield): ″+++″ (≥50% = +++)

## 548 (ALWENPESGEL; listed as Homo sapiens) [compound 548]
  Peptide exchange (MHC class I binding score, peptide exchange yield): ″++″ (≥20% = ++)

## 549 (AMLENASDIKL; listed as Homo sapiens) [compound 549]
  Peptide exchange (MHC class I binding score, peptide exchange yield): ″+++″ (≥50% = +++)

## 550 (FLYDEIEAEVNL; listed as Homo sapiens) [compound 550]
  Peptide exchange (MHC class I binding score, peptide exchange yield): ″+++″ (≥50% = +++)

## 551 (KLYESLLPFA; listed as Homo sapiens) [compound 551]
  Peptide exchange (MHC class I binding score, peptide exchange yield): ″+++″ (≥50% = +++)

## 552 (GLLDLPFRVGV; listed as Homo sapiens) [compound 552]
  Peptide exchange (MHC class I binding score, peptide exchange yield): ″++++″ (≥75% = ++++)

## 553 (SLLNQDLHWSL; listed as Homo sapiens) [compound 553]
  Peptide exchange (MHC class I binding score, peptide exchange yield): ″++++″ (≥75% = ++++)

## 554 (LLMPSSEDLLL; listed as Homo sapiens) [compound 554]
  Peptide exchange (MHC class I binding score, peptide exchange yield): ″+++″ (≥50% = +++)

## 555 (YVLEGLKSV; listed as Homo sapiens) [compound 555]
  Peptide exchange (MHC class I binding score, peptide exchange yield): ″+++″ (≥50% = +++)

## 556 (FLTDLEDLTL; listed as Homo sapiens) [compound 556]
  Peptide exchange (MHC class I binding score, peptide exchange yield): ″+++″ (≥50% = +++)

## 557 (KLYDDMIRL; listed as Homo sapiens) [compound 557]
  Peptide exchange (MHC class I binding score, peptide exchange yield): ″+++″ (≥50% = +++)

## 558 (GLLENIPRV; listed as Homo sapiens) [compound 558]
  Peptide exchange (MHC class I binding score, peptide exchange yield): ″+++″ (≥50% = +++)

## 559 (VTVPPGPSL; listed as Homo sapiens) [compound 559]
  Peptide exchange (MHC class I binding score, peptide exchange yield): ″++″ (≥20% = ++)

## 560 (ALWDIETGQQTTT; listed as Homo sapiens) [compound 560]
  Peptide exchange (MHC class I binding score, peptide exchange yield): ″+++″ (≥50% = +++)

## 561 (YLQLTQSEL; listed as Homo sapiens) [compound 561]
  Peptide exchange (MHC class I binding score, peptide exchange yield): ″+++″ (≥50% = +++)

## 562 (YLEELPEKLKL; listed as Homo sapiens) [compound 562]
  Peptide exchange (MHC class I binding score, peptide exchange yield): ″+++″ (≥50% = +++)

## 563 (WLLPYNGVTV; listed as Homo sapiens) [compound 563]
  Peptide exchange (MHC class I binding score, peptide exchange yield): ″+++″ (≥50% = +++)

## 564 (TVTNAVVTV; listed as Homo sapiens) [compound 564]
  Peptide exchange (MHC class I binding score, peptide exchange yield): ″+++″ (≥50% = +++)

## 565 (ALQETPTSV; listed as Homo sapiens) [compound 565]
  Peptide exchange (MHC class I binding score, peptide exchange yield): ″++″ (≥20% = ++)

## 566 (VIADGGIQNV; listed as Homo sapiens) [compound 566]
  Peptide exchange (MHC class I binding score, peptide exchange yield): ″++″ (≥20% = ++)

## 567 (SLLPLDDIVRV; listed as Homo sapiens) [compound 567]
  Peptide exchange (MHC class I binding score, peptide exchange yield): ″+++″ (≥50% = +++)

## 568 (TLYDIAHTPGV; listed as Homo sapiens) [compound 568]
  Peptide exchange (MHC class I binding score, peptide exchange yield): ″++++″ (≥75% = ++++)

## 569 (KLVDRTWTL; listed as Homo sapiens) [compound 569]
  Peptide exchange (MHC class I binding score, peptide exchange yield): ″+++″ (≥50% = +++)

## 570 (ALANQIPTV; listed as Homo sapiens) [compound 570]
  Peptide exchange (MHC class I binding score, peptide exchange yield): ″++″ (≥20% = ++)

## 571 (LLLTTIPQI; listed as Homo sapiens) [compound 571]
  Peptide exchange (MHC class I binding score, peptide exchange yield): ″+++″ (≥50% = +++)

## 572 (ALADLIEKELSV; listed as Homo sapiens) [compound 572]
  Peptide exchange (MHC class I binding score, peptide exchange yield): ″+++″ (≥50% = +++)

## 573 (ILVANAIVGV; listed as Homo sapiens) [compound 573]
  Peptide exchange (MHC class I binding score, peptide exchange yield): ″+++″ (≥50% = +++)

## 574 (YLLQEPPRTV; listed as Homo sapiens) [compound 574]
  Peptide exchange (MHC class I binding score, peptide exchange yield): ″++″ (≥20% = ++)

## 575 (YLISQVEGHQV; listed as Homo sapiens) [compound 575]
  Peptide exchange (MHC class I binding score, peptide exchange yield): ″+++″ (≥50% = +++)

## 576 (ILLNNSGQIKL; listed as Homo sapiens) [compound 576]
  Peptide exchange (MHC class I binding score, peptide exchange yield): ″++++″ (≥75% = ++++)

## 577 (VMFEDGVLMRL; listed as Homo sapiens) [compound 577]
  Peptide exchange (MHC class I binding score, peptide exchange yield): ″+++″ (≥50% = +++)

## 578 (FLDPGGPMMKL; listed as Homo sapiens) [compound 578]
  Peptide exchange (MHC class I binding score, peptide exchange yield): ″+++″ (≥50% = +++)

## 579 (NLMEMVAQL; listed as Homo sapiens) [compound 579]
  Peptide exchange (MHC class I binding score, peptide exchange yield): ″++″ (≥20% = ++)

## 580 (LLMENAERV; listed as Homo sapiens) [compound 580]
  Peptide exchange (MHC class I binding score, peptide exchange yield): ″++″ (≥20% = ++)

## 582 (TLCDVILMV; listed as Homo sapiens) [compound 582]
  Peptide exchange (MHC class I binding score, peptide exchange yield): ″+++″ (≥50% = +++)
